Data from US11278600B2, “Human alpha-galactosidase variants” (Codexis, Inc., priority 2014, dated 2022).

Assays:
Format in all cases: biochemical
[1] = HTP-analysis of supernatants pretreated with base (MUGal hydrolysis); conditions: challenge at pH 7.6; activity of the variant/activity of Rd2BB (SEQ ID NO: 10); yeast culture supernatant
How it was run: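 GLA variants were secreted by transformed INVSc1 yeast grown 66-84 h at 30° C. Supernatants were exposed to neutral-to-basic buffers (pH 7.0-9.7) at 37° C for 1-18 h, then assayed with MUGal in acidic citrate/McIlvaine buffer, with fluorescence read after quenching.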

[2] = HTP-analysis of supernatants pretreated with acid (MUGal hydrolysis); conditions: challenge at pH 4.2; activity of the variant/activity of Rd2BB (SEQ ID NO: 10); yeast culture supernatant
How it was run: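 Fluorescence of MUGal hydrolysis (Ex. 355 nm, Em. 448 nm) is read after sodium carbonate quench. The enzyme source is INVSc1 yeast culture supernatant, first exposed to pH 3.3-4.3 McIlvaine buffer at 37° C. for 1-3 h, then reacted at pH 4.8 for 30-180 minutes.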

[3] = HTP-analysis of supernatants pretreated with bovine serum (MUGal hydrolysis); conditions: activity of the variant/activity of Rd2BB (SEQ ID NO: 10), yeast culture supernatant
Protocol: Yeast (INVSc1) cells transformed with vectors expressing GLA and GLA variants using the lithium acetate method were selected on SD-Ura agar plates. After 72 h incubation at 30° C. colonies were placed into the wells of Axygen® 1.1 ml 96-well deep well plates filled with 200 μl/well SD-Ura broth (2 g/L SD-Ura, 6.8 g/L yeast nitrogen base without amino acids [Sigma Aldrich]), 3.06 g/L sodium dihydrogen phosphate, 0.804 g/L disodium hydrogen phosphate, pH 6.0 supplemented with 6% glucose. The cells were allowed to grow for 20-24 hours in a Kuhner shaker (250 rpm, 30° C., and 85% relative humidity). Overnight culture samples (20 μL) were transferred into Corning Costar® 96-well deep plates filled with 380 µL of SD-ura broth supplemented with 2% glucose. The plates were incubated for 66-84 h in a Kuhner shaker (250 rpm, 30° C., and 85% relative humidity). The cells were then pelleted (4000 rpm×20 min), and the supernatants isolated and stored at 4° C. prior to analysis.
GLA variants were challenged with bovine serum to simulate the conditions the variants encounter following infusion into a patient. First, 20 μL of yeast culture supernatant and 80 μL, of bovine serum were added to the wells of a 96-well round bottom plate. The plates were sealed and incubated at 37° C. for 1 h. For the assay, 50 μL of serum-challenged sample was mixed with 25 μL, of 1 M citrate buffer pH 4.3 and 25 μL, of 4 mM MUGal in McIlvaine buffer pH 4.8. The reactions were mixed briefly and incubated at 37° C. for 180 minutes, prior to quenching with 100 μL, of 1 M sodium carbonate. Hydrolysis was analyzed using a SpectraMax® M2 microplate reader monitoring fluorescence (Ex. 355 nm, Em. 448 nm).

[4] = HTP-analysis of yeast culture supernatants, no challenge (MUGal hydrolysis); conditions: activity of the variant/activity of Rd2BB (SEQ ID NO: 10), yeast culture supernatant
How it was run: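 GLA variants were expressed in INVSc1 yeast grown in SD-Ura broth with glucose at 30° C., and culture supernatants were collected after 66-84 h. Supernatant was mixed with McIlvaine buffer pH 4.8 and MUGal (2 mM stock) in 50 mM citrate, 200 mM KCl, pH 4.6, incubated at 37° C. for 30-180 minutes, then quenched with sodium carbonate.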

Row | Molecule | Relative Activity of GLA Variants After Challenge at pH 7.6 [1] | Relative Activity of GLA Variants After Challenge at pH 4.2 [2] | Relative Activity of GLA Variants After Challenge with Serum [3] | Relative Activity of GLA Variants After No Challenge (NC) [4]
1 | 242 (protein, Synthetic Polypeptide sequence of Variant No. 242 of mature Human GLA) LDNGLARTPTMGWLHWERFMCNLDCQEEPDSCISEKLFMEMAELMVSEGWKDAGYEYLCIDDCWMAPQRDSEGRLQADPQRFPHGIRQLANYVHSKGLKLGIYADVGNKTCAGFPGSFGYYDIDAQTFADWGVDLLKFDGCYCDSLENLADGYKHMSLALNRTGRSIVYSCEWPLYMWPFQKPNYTEIRQYCNHWRNFADIDDSWASIKSILDWTSFNQERIVDVAGPGGWNDPDMLVIGNFGLSWDQQVTQMALWAIMAAPLFMSNDLRHISPQAKALLQDKDVIAINQDPLGKQGYQLRQGDNFEVWERPLSGLAWAVAVINRQEIGGPRSYTIAVASLGGGVACNPACFITQLLPVKRKLGLYEWTSRLKSHINPTGTVLLQLENTMQMSLKDLL | +++ (+++ = >2.5 relative activity over Rd2BB (SEQ ID NO: 10)) | +++ (+++ = >2.5 relative activity over Rd2BB (SEQ ID NO: 10)) | +++ (+++ = >2.5 relative activity over Rd2BB (SEQ ID NO: 10)) | +++ (+++ = >2.5 relative activity over Rd2BB (SEQ ID NO: 10))
2 | 246 (protein, Synthetic Polypeptide sequence of Variant No. 246 of mature Human GLA) LDNGLARTPTMGWLHWERFMCNLDCQEEPDSCISEKLFMEMAELMVSEGWKDAGYEYLCIDDCWMAPQRDSEGRLQADPQRFPHGIRQLANYVHSKGLKLGIYADVGNKTCAGFPGSFGYYDIDAQTFADWGVDLLKFDGCYCDSLENLADGYKHMSLALNRTGRSIVYSCEWPLYMWPFQKPNYTEIRQYCNHWRNFADIDDSWASIKSILDWTSFNQERIVDVAGPGGWNDPDMLVIGNFGLSWNQQVTQMALWAIMAAPLFMSNDLRHISPQAKALLQDKDVIAINQDPLGKQGYQLRKGDNFEVWERPLSGDAWAVAMINRQEIGGPRSYTIPVASLGKGVACNPACFITQLLPVKRKLGFYEWTSRLRSHINPTGTVLLQLENTMQMSLKDLL | +++ (+++ = >2.5 relative activity over Rd2BB (SEQ ID NO: 10)) | +++ (+++ = >2.5 relative activity over Rd2BB (SEQ ID NO: 10)) | +++ (+++ = >2.5 relative activity over Rd2BB (SEQ ID NO: 10)) | +++ (+++ = >2.5 relative activity over Rd2BB (SEQ ID NO: 10))
3 | 245 (protein, Synthetic Polypeptide sequence of Variant No. 245 of mature Human GLA) LDNGLARTPTMGWLHWERFMCNLDCQEEPDSCISEKLFMEMAELMVSEGWKDAGYEYLCIDDCWMAPQRDSEGRLQADPQRFPHGIRQLANYVHSKGLKLGIYADVGNKTCAGFPGSFGYYDIDAQTFADWGVDLLKFDGCYCDSLENLADGYKHMSLALNRTGRSIVYSCEWPLYMWPFQKPNYTEIRQYCNHWRNFADIDDSWASIKSILDWTSFNQERIVDVAGPGGWNDPDMLVIGNFGLSWDQQVTQMALWAIMAAPLFMSNDLRHISPQAKALLQDKDVIAINQDPLGKQGYQLRKGDNFEVWERPLSGLAWAVAVINRQEIGGPRSYTIAVASLGKGVACNPACFITQLLPVKRKLGLYEWTSRLKSHVNPTGTVLLQLENTMQMSLKDLL | +++ (+++ = >2.5 relative activity over Rd2BB (SEQ ID NO: 10)) | +++ (+++ = >2.5 relative activity over Rd2BB (SEQ ID NO: 10)) | ++ (++ = 1.5 to 2.5 relative activity over Rd2BB (SEQ ID NO: 10)) | ++ (++ = 1.5 to 2.5 relative activity over Rd2BB (SEQ ID NO: 10))
4 | 247 (protein, Synthetic Polypeptide sequence of Variant No. 247 of mature Human GLA) LDNGLARTPTMGWLHWERFMCNLDCQEEPDSCISEKLFMEMAELMVSEGWKDAGYEYLCIDDCWMAPQRDSEGRLQADPQRFPHGIRQLANYVHSKGLKLGIYADVGNKTCAGFPGSFGYYDIDAQTFADWGVDLLKFDGCYCDSLENLADGYKHMSLALNRTGRSIVYSCEWPLYMWPFQKPNYTEIRQYCNHWRNFADIDDSWASIKSILDWTSFNQEKIVDVAGPGGWNDPDMLVIGNFGLSWDQQVTQMALWAIMAAPLFMSNDLRHISPQAKALLQDKDVIAINQDPLGKQGYQLRQGDNFEVWERPLSGLAWAVAVINRQEIGGPRSYTIAVASLGDGVACNPACFITQLLPVKRKLGFYEWTSRLKSHINPTGTVLLQLENTMQMSLKDLL | +++ (+++ = >2.5 relative activity over Rd2BB (SEQ ID NO: 10)) | +++ (+++ = >2.5 relative activity over Rd2BB (SEQ ID NO: 10)) | +++ (+++ = >2.5 relative activity over Rd2BB (SEQ ID NO: 10)) | +++ (+++ = >2.5 relative activity over Rd2BB (SEQ ID NO: 10))
5 | 244 (protein, Synthetic Polypeptide sequence of Variant No. 244 of mature Human GLA) LDNGLARTPTMGWLHWERFMCNLDCQEEPDSCISEKLFMEMAELMVSEGWKDAGYEYLCIDDCWMAPQRDSEGRLQADPQRFPHGIRQLANYVHSKGLKLGIYADVGNKTCAGFPGSFGYYDIDAQTFADWGVDLLKFDGCYCDSLENLADGYKHMSLALNRTGRSIVYSCEWPLYMWPFQKPNYTEIRQYCNHWRNFADIDDSWASIKSILDWTSFNQERIVDVAGPGGWNDPDMLVIGNFGLSWDQQVTQMALWAIMAAPLFMSNDLRHISPQAKALLQDKDVIAINQDPLGKQGYQLRKGDNFEVWERPLSGDAWAVAMINRQEIGGPRSYTIAVASLGKGVACNPGCFITQLLPVKRKLGFYEWTSRLRSHINPTGTVLLQLENTMQMSLKDLL | +++ (+++ = >2.5 relative activity over Rd2BB (SEQ ID NO: 10)) | +++ (+++ = >2.5 relative activity over Rd2BB (SEQ ID NO: 10)) | +++ (+++ = >2.5 relative activity over Rd2BB (SEQ ID NO: 10)) | +++ (+++ = >2.5 relative activity over Rd2BB (SEQ ID NO: 10))
6 | 243 (protein, Synthetic Polypeptide sequence of Variant No. 243 of mature Human GLA) LDNGLARTPTMGWLHWERFMCNLDCQEEPDSCISEKLFMEMAELMVSEGWKDAGYEYLCIDDCWMAPQRDSEGRLQADPQRFPHGIRQLANYVHSKGLKLGIYADVGNKTCAGFPGSFGYYDIDAQTFADWGVDLLKFDGCYCDSLENLADGYKHMSLALNRTGRSIVYSCEWPLYMWPFQKPNYTEIRQYCNHWRNFADIDDSWASIKSILDWTSFNQERIVDVAGPGGWNDPDMLVIGNFGLSWDQQVTQMALWAIMAAPLFMSNDLRHISPQAKALLQDKDVIAINQDPLGKQGYQLRKGDNFEVWERPLSGLAWAVAMINRQEIGGPRSYTIPVASLGGGVACNPGCFITQLLPVKRKLGFYEWTSRLRSHINPTGTVLLQLENTMQMSLKDLL | +++ (+++ = >2.5 relative activity over Rd2BB (SEQ ID NO: 10)) | +++ (+++ = >2.5 relative activity over Rd2BB (SEQ ID NO: 10)) | +++ (+++ = >2.5 relative activity over Rd2BB (SEQ ID NO: 10)) | +++ (+++ = >2.5 relative activity over Rd2BB (SEQ ID NO: 10))
